Reference: IntAct's records for PubMed 18334649

B1: Receptor tyrosine-protein kinase erbB-4 (Homo sapiens), Q15303 (parent)
chain: MKPATGLWVWVSLLVAAGTVQPSDSQSVCAGTENKLSSLSDLEQQYRALRKYYENCEVVMGNLEITSIEHNRDLSFLRSVREVTGYVLVALNQFRYLPLENLRIIRGTKLYEDRYALAIFLNYRKDGNFGLQELGLKNLTEILNGGVYVDQNKFLCYADTIHWQDIVRNPWPSNLTLVSTNGSSGCGRCHKSCTGRCWGPTENHCQTLTRTVCAEQCDGRCYGPYVSDCCHRECAGGCSGPKDTDCFACMNFNDSGACVTQCPQTFVYNPTTFQLEHNFNAKYTYGAFCVKKCPHNFVVDSSSCVRACPSSKMEVEENGIKMCKPCTDICPKACDGIGTGSLMSAQTVDSSNIDKFINCTKINGNLIFLVTGIHGDPYNAIEAIDPEKLNVFRTVREITGFLNIQSWPPNMTDFSVFSNLVTIGGRVLYSGLSLLILKQQGITSLQFQSLKEISAGNIYITDNSNLCYYHTINWTTLFSTINQRIVIRDNRKAENCTAEGMVCNHLCSSDGCWGPGPDQCLSCRRFSRGRICIESCNLYDGEFREFENGSICVECDPQCEKMEDGLLTCHGPGPDNCTKCSHFKDGPNCVEKCPDGLQGANSFIFKYADPDRECHPCHPNCTQGCNGPTSHDCIYYPWTGHSTLPQHARTPLIAAGVIGGLFILVIVGLTFAVYVRRKSIKKKRALRRFLETELVEPLTPSGTAPNQAQLRILKETELKRVKVLGSGAFGTVYKGIWVPEGETVKIPVAIKILNETTGPKANVEFMDEALIMASMDHPHLVRLLGVCLSPTIQLVTQLMPHGCLLEYVHEHKDNIGSQLLLNWCVQIAKGMMYLEERRLVHRDLAARNVLVKSPNHVKITDFGLARLLEGDEKEYNADGGKMPIKWMALECIHYRKFTHQSDVWSYGVTIWELMTFGGKPYDGIPTREIPDLLEKGERLPQPPICTIDVYMVMVKCWMIDADSRPKFKELAAEFSRMARDPQRYLVIQGDDRMKLPSPNDSKFFQNLLDEEDLEDMMDAEEYLVPQAFNIPPPIYTSRARIDSNRSEIGHSPPPAYTPMSGNQFVYRDGGFAAEQGVSVPYRAPTSTIPEAPVAQGATAEIFDDSCCNGTLRKPVAPHVQEDSSTQRYSADPTVFAPERSPRGELDEEGYMTPMRDKPKQEYLNPVEENPFVSRRKNGDLQALDNPEYHNASNGPPKAEDEYVNEPLYLNTFANTLGKAEYLKNNILSMPEKAKKAFDNPDYWNHSLPPRSTLQHPDYLQEYSTKYFYKQNGRIRPIVAENPEYLSEFSLKPGTVLPPPPYRHRNTVV

Variants of: B1
Conditions: with ITCH

| effect of a mutation on the interaction | Variant |
| --- | --- |
| disrupting interaction | P1054A |
| disrupting interaction | Y1056F |
